B1: 单抗17-CQTS082 (antibody, V domains shown)
VH: EVQLVQSGAEVKKPGESLKISCKGSGYSFSTYWIGWVRQMPGKGLEWMGIIYPYDSDTRYSPSFQGQVTISADKSISTAYLQWSSLKASDTAIYYCARQESGWSFDYWGQGTLVTVSS
VL: DIQMTQSPSSLSASVGDRVTITCRASQNINKYLNWYQQKPGKAPKLLIYVASSLQSGVPSRFSGSGSGTDFTLTISSLQPEDFATYYCQQSYSTPRTFGQGTKVEIK
B2: 单抗15-CQTS080 (antibody, V domains shown)
VH: QVTLRESGPALVRPTQTLTLTCTFAGFSLRTHGMCVSWIRQPPGKALEWLARIDWDGDKYYSTSLKTRLTISKDTSKDQVVLTMTNMDPVDTATYYCARFLVGGFKAWFDPWGQGTLVTVSS
VL: QSVLTQPPSVSAAPGQKVTISCSGSSSNIGNNYVSWYQQLPGIAPELLIYDNNKRPSGIPGRFSGSRSGTSATLDITGLQTGDEADYYCGTWDTSLNVWVFGGGTKLTVL
B3: 单抗14-CQTS079 (antibody, V domains shown)
VH: EVQLVESGGGLIQPGGSLRLSCAASGFTVSSNYMSWVRQAPGKGLEWVSVIYSGDNTYYADSVKGRFTISRDNSKNTLYLQMNSLRAEDTAVYYCAKMLWLRGWFDPWGQGTLVTVSS
VL: NFMLTQPHSVSESPGKTVTISCTRSSGSIASNYVQWYQQRPGSAPTTVIYEDNQRPSGVPDRFSGSIDSSSDSASLTISGLKTEDEADYYCQSYDTSNHWVFGGGTKLTVL
B4: 单抗18-CQTS083 (antibody, V domains shown)
VH: EVQLVESGGGLVQPGGSLRLSCAASGLTVSSNYMSWVRQAPGKGLEWVSLIYSGGSTYYADSVKGRFTISRHNSKNTLYLQMNSLRAEDTAVYYCARDLEERGAMDVWGQGTTVTVSS
VL: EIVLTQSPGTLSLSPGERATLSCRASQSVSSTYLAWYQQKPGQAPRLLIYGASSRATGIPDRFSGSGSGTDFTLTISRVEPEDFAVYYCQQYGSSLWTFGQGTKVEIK
B5: 单抗12-CQTS077 (antibody, V domains shown)
VH: EVQLVESGGGVVQPGGSLRLSCAASGFTFDDYAMNWVRQAPGKGLEWVSLISGDGDSPSYSGSVKGRFTISRDNSKNSLYLQMISLRTEDTALYYCARESPKLTGYFDYWGQGTLVTVSS
VL: SYVLTQPPSVSVAPGQTAGITCGGDDIGSKNVHWYQQKPGQAPVLVVYDDHDRPSGIPERFSGSNSGNTATLTISRVEAGDEADYYCQVWDSSSDPYVFGTGTKVTVL
B6: 单抗19-CQTS086 (antibody, V domains shown)
VH: EVQLVESGGGLVQPGGSLRLSCAASGITVNSNYMSWVRQAPGKGLEWVSVIYNGVTTYYADSVKGRFTISRDISKNTVYLQMNSLRAEDTAVYYCARAGWLRGRFDPWGQGTLVIVSS
VL: SYVLTQPPSVSVAPGQTASITCGGSNIGSKNVHWYQQKSGQAPVLVVYDDSDRPSGIPERFSGSNSGNTATLIINRVEAGDEADYYCQVWDSTTDLPHWVFGGGTKLTVL
B7: 单抗13-CQTS078 (antibody, V domains shown)
VH: QVQLVQSGAEVKKPGASVRVSCKASGDTFSSHYIHWVRQAPGQGLEWMGIINPSGGSTSYAQKFQGRVTMTSDTSTSTVYLELSSLRSEDTAVYYCARDQAFIVATLGPDYWGQGILVTVSS
VL: QTVVTQEPSFSVSPGGTVTLTCGLSSGSVSTSYYASWYQQTPGQAPRTLIYSTNTRSSGVPDRFSGSILGNKAALTITGAQADDESDYYCVLYMGSGIWVFGGGTKLTVL

Molecular target: 新冠病毒(SARS-CoV-2) S蛋白受体结合域 RBD (SARS-CoV-2, UniProt P0DTC2 319-541)
Experiment: ELISA, antigen coated at 2 μg/mL, 293T supernatant, anti-human IgG-ALP detection

Binder | binding result
B1 | binds
B2 | binds
B3 | binds
B4 | binds
B5 | binds
B6 | binds
B7 | binds
